# From patent publication US20260092093A1 (TJ BIOPHARMA SHANGHAI, published 2026)
# Where a chain is given by its changes, count along the chain named.
# T1: hIL-18Rα ECD-Fc fusion protein (human, UniProt Q13478 22-329)
# T1 construct: extracellular domain; captured on Protein A sensor
# T1 sequence (looked up): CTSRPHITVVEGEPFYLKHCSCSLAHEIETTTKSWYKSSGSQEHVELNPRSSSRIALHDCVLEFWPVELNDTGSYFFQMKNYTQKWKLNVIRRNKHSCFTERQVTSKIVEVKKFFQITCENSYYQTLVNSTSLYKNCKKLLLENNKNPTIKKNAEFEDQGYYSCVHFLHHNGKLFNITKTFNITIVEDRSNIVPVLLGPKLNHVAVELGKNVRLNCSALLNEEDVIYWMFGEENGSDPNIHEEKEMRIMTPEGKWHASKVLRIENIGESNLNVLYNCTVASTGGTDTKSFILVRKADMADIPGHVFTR
# T2: recombinant hIL-18Rα extracellular domain (human, UniProt Q13478 22-329, biotin label (selection) or fluorescent probe (single-clone FACS), sites not given)
# T2 construct: extracellular domain; also called hIL-18Rα ECD; hIL-18Rα-ECD
# T2 sequence (looked up): T1 sequence (looked up)
# B1: IL-18 variant polypeptide M1 (ligand)
# chain: YFPKLKSKLSVIRNLNDQVLFIDQGNRPLFEDMTDSDCRDNAPRTIFIISMYKHSDRRGMAVTISVKCEKISTLSCENKIISFKEMNPPDVIKDTKSDIIFFQVSVPGHDNKMQFESSSYEGYFLACEKERDLFKLILKKEDELGDRSIMFTVQNED
# B2: IL-18 variant polypeptide M5 (ligand)
# chain: B1 chain with P3E, K6T, H54W, D56P, R57W, V104T, N155K
# B3: IL-18 variant polypeptide M13 (ligand)
# chain: B1 chain with H54Q, D56I, R57W, V91N, V104R
# B4: IL-18 variant polypeptide M15 (ligand)
# chain: B1 chain with K6R, H54S, D56Y, R57T, V91G, V104R
# B5: IL-18 variant polypeptide M9 (ligand)
# chain: B1 chain with K6R, H54W, D56R, R57A, V91S, V104S
# B6: IL-18 variant polypeptide M16 (ligand)
# chain: B1 chain with K6R, H54S, D56R, R57N, V91G, V104S
# B7: IL-18 variant polypeptide M18 (ligand)
# chain: B1 chain with K6R, H54S, D56R, V91G, V104S
# B8: IL-18 variant polypeptide M20 (ligand)
# chain: B1 chain with K6R, H54S, D56R, R57S, V91G, V104S
# B9: IL-18 variant polypeptide M7 (ligand)
# chain: B1 chain with K6R, D56T, R57A, V91A, V104R
# B10: IL-18 variant polypeptide M2 (ligand)
# chain: B1 chain with P3S, H54W, D56P, R57D, V91G, V104T
# B11: IL-18 variant polypeptide M14 (ligand)
# chain: B1 chain with P3N, H54P, D56S, R57S, V91R, V104A
# B12: IL-18 variant polypeptide M22 (ligand)
# chain: B1 chain with K6R, H54Y, D56R, R57G, V91K, V104S
# B13: IL-18 variant polypeptide M12 (ligand)
# chain: B1 chain with H54G, D56G, R57A, V91T, V104R
# B14: IL-18 variant polypeptide M4 (ligand)
# chain: B1 chain with H54W, D56G, R57V, V104F
# B15: IL-18 variant polypeptide M17 (ligand)
# chain: B1 chain with K6R, H54L, D56T, R57A, V91G, V104R
# B16: IL-18 variant polypeptide M10 (ligand)
# chain: B1 chain with K6R, H54Q, D56L, R57W, V91S, V104R
# B17: IL-18 variant polypeptide M19 (ligand)
# chain: B1 chain with D56E, R57Q, V91A, V104R
# B18: IL-18 variant polypeptide M11 (ligand)
# chain: B1 chain with K6R, H54S, D56R, R57N, V91G, V104T
# B19: IL-18 variant polypeptide M23 (ligand)
# chain: B1 chain with K6R, H54Y, D56T, V91N, V104R
# B20: IL-18 variant polypeptide M3 (ligand)
# chain: B1 chain with H54W, D56H, R57V, V91A, V104Y
# B21: IL-18 variant polypeptide M24 (ligand)
# chain: B1 chain with K6R, H54Y, D56T, R57S, V91N, V104R
# B22: IL-18 variant polypeptide M21 (ligand)
# chain: B1 chain with K6R, H54S, D56S, R57T, V91G, V104S
# B23: SEQ ID NO 112 (ligand)
# chain: B1 chain with K6R, D56T, R57N, V91I, V104I
# B24: SEQ ID NO 100 (ligand)
# chain: B1 chain with P3S, K6P, H54Y, D56T, R57W, V91F, V104S
# B25: SEQ ID NO 106 (ligand)
# chain: B1 chain with K6S, H54A, D56S, R57L, V91S, V104R
# B26: SEQ ID NO 102 (ligand)
# chain: B1 chain with K6R, H54F, D56N, R57F, V91A, V104S
# B27: SEQ ID NO 98 (ligand)
# chain: B1 chain with K6T, H54Y, D56T, V91N, V104R
# B28: SEQ ID NO 109 (ligand)
# chain: B1 chain with P3K, K6P, H54L, D56S, R57E, V91N, V104R
# B29: SEQ ID NO 115 (ligand)
# chain: B1 chain with K6G, H54I, D56H, R57D, V91T, V104S
# B30: SEQ ID NO 118 (ligand)
# chain: B1 chain with K6A, H54W, D56N, R57A, V91S, V104R
# B31: SEQ ID NO 103 (ligand)
# chain: B1 chain with P3S, K6P, H54W, D56P, V91I, V104S
# B32: SEQ ID NO 111 (ligand)
# chain: B1 chain with K6E, H54Y, D56S, R57K, V91G, V104R
# B33: SEQ ID NO 113 (ligand)
# chain: B1 chain with K6R, H54I, D56I, R57S, V91N, V104R
# B34: SEQ ID NO 101 (ligand)
# chain: B1 chain with H54L, D56R, R57T, V91F, V104S
# B35: SEQ ID NO 110 (ligand)
# chain: B1 chain with K6N, H54L, D56P, V91N, V104R
# B36: SEQ ID NO 108 (ligand)
# chain: B1 chain with K6G, H54Q, D56H, R57Y, V91N, V104R
# B37: SEQ ID NO 107 (ligand)
# chain: B1 chain with K6T, H54T, D56Y, R57E, V104R
# Biological target: T1, hIL-18Rα ECD-Fc fusion protein
# Experiment: BLI (Octet RED96), hIL-18Rα ECD-Fc on Protein A sensor
# Description: The affinities of IL-18 variant polypeptides for hIL-18Rα were assessed by Biolayer Interferometry (BLI) on Octet RED96 using Protein A sensor coated with hIL-18Rα ECD-Fc fusion protein, and WT hIL-18 was used as a control.
Kd,Response (nm),koff,kon,Binder
2030 nM,0.0186 nm,0.111 s⁻¹,54400 M⁻¹ s⁻¹,B1
38.8 nM,0.0468 nm,0.0149 s⁻¹,383000 M⁻¹ s⁻¹,B2
11.6 nM,0.31 nm,0.0038 s⁻¹,327000 M⁻¹ s⁻¹,B3
36.7 nM,0.122 nm,0.0183 s⁻¹,499000 M⁻¹ s⁻¹,B4
4.88 nM,< 0.02 nm,0.0108 s⁻¹,2.21e+06 M⁻¹ s⁻¹,B5
42.6 nM,0.111 nm,0.0177 s⁻¹,415000 M⁻¹ s⁻¹,B6
33.1 nM,0.173 nm,0.0134 s⁻¹,404000 M⁻¹ s⁻¹,B7
35.1 nM,0.136 nm,0.0167 s⁻¹,476000 M⁻¹ s⁻¹,B8
11.9 nM,0.0222 nm,0.0271 s⁻¹,2.27e+06 M⁻¹ s⁻¹,B9
12200 nM,0.0184 nm,0.0499 s⁻¹,4090 M⁻¹ s⁻¹,B10
23.6 nM,0.218 nm,0.00588 s⁻¹,250000 M⁻¹ s⁻¹,B11
4080 nM,0.0592 nm,0.0398 s⁻¹,9740 M⁻¹ s⁻¹,B12
24.9 nM,0.186 nm,0.0107 s⁻¹,427000 M⁻¹ s⁻¹,B13
39.1 nM,0.0326 nm,0.017 s⁻¹,436000 M⁻¹ s⁻¹,B14
67.7 nM,0.0784 nm,0.0231 s⁻¹,340000 M⁻¹ s⁻¹,B15
48.6 nM,0.0788 nm,0.0235 s⁻¹,483000 M⁻¹ s⁻¹,B16
112 nM,0.025 nm,0.0554 s⁻¹,495000 M⁻¹ s⁻¹,B17
68.2 nM,0.08 nm,0.0189 s⁻¹,277000 M⁻¹ s⁻¹,B18
368 nM,0.0522 nm,0.0302 s⁻¹,82300 M⁻¹ s⁻¹,B19
2140 nM,0.057 nm,0.0431 s⁻¹,20100 M⁻¹ s⁻¹,B20
930 nM,0.0434 nm,0.0451 s⁻¹,48500 M⁻¹ s⁻¹,B21
64.9 nM,0.0791 nm,0.0221 s⁻¹,340000 M⁻¹ s⁻¹,B22

# Biological target: T2, recombinant hIL-18Rα extracellular …
# Experiment: single-clone FACS, yeast display, 10 nM labelled hIL-18Rα ECD
# Description: Following the screens described in Example 2, single clone FACS analysis was performed to verify the binding of selected yeast cell surface-expressed IL-18 variant polypeptides from Round 4 and Round 5 to 10 nM hIL-18Rα-ECD. Briefly, each yeast clone at the same density was incubated with 10 nM IL-18Rα-ECD labeled by fluorescent probe, respectively, followed by washing step. Then the ratio of fluorescent positive IL-18Rα ECD binding yeasts in the population of each clone were analyzed.
row,% of fluorescence positive cells,Binder
1,89.8%,B1
2,0.69%,B23
3,2.16%,B24
4,96%,B2
5,1.34%,B25
6,96.4%,B3
7,95%,B4
8,36.1%,B5
9,1.64%,B26
10,88.5%,B6
11,80.9%,B7
12,2.36%,B27
13,86.2%,B8
14,0.98%,B28
15,93.8%,B9
16,0.35%,B29
17,91.6%,B10
18,88.3%,B11
19,4.83%,B12

row,% of fluorescence positive cells,Binder
1,88.3%,B13
2,0.15%,B30
3,44.9%,B14
4,87.1%,B15
5,68.1%,B16
6,1.44%,B31
7,0.69%,B32
8,90%,B17
9,83.6%,B18
10,0.61%,B33
11,1.91%,B34
12,0.71%,B35
13,2.36%,B19
14,93.3%,B20
15,1.36%,B21
16,1.08%,B36
17,89.9%,B22
18,1.23%,B37
